Data as given in IntAct's records for PubMed 18477457.

B1: Protein pop-1 (Caenorhabditis elegans), Q10666 (parent)
chain: MMADEELGDEVKVFRRDEDADDDPMISGETSEQQLADDKKEAVMEAELDGAGRNPSIDVLKSAFPKVEPMSPSFPGLMSHFSPGYSAAALPMFMPLFMNPYAAALRSPSLMFPMGAMSPTFPMFPPSPVYGAAIAAAAAKQHFENMAPLNMRAGHPMNQMGMPPYMHPSSMAPQNVDRRAQGGGKAKKDDHVKKPLNAFMWFMKENRKALLEEIGNNEKQSAELNKELGKRWHDLSKEEQAKYFEMAKKDKETHKERYPEWSARENYAVNKKKTKKRRDKSIPSENNDQKKCRARFGVNNTEMWCKFCKRKKKCEYATDRSGGSDITDSQDGRGTSGAYSSSSESPSPKANAGIALTTQQQQAAMMHTMLMQMRLGSTTGASTHVPSPLASSSAGRSPLDANASDSESDVEEEEDEQIDPTVMQQTHDMLMQESMCTI
partner: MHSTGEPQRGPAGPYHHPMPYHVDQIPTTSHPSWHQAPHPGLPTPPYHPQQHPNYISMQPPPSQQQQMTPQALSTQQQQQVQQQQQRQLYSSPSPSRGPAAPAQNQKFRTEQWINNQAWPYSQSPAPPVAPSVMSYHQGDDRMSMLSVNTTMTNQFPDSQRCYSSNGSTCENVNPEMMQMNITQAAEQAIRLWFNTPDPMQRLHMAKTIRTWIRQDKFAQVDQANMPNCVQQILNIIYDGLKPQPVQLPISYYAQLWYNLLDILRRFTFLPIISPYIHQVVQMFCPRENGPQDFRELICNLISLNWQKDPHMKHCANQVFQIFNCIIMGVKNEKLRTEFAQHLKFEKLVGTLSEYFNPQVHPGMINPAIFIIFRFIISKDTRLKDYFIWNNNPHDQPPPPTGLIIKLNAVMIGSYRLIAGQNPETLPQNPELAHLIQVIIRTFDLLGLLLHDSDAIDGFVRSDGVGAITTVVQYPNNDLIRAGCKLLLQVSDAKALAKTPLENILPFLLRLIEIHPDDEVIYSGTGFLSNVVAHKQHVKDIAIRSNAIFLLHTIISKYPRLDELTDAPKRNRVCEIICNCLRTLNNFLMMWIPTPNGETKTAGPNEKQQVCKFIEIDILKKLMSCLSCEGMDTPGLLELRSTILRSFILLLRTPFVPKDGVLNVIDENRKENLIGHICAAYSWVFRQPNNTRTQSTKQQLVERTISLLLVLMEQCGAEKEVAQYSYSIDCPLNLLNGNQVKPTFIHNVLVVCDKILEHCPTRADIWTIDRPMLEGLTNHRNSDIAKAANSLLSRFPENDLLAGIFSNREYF
B2: Beta-catenin homolog sys-1 (Caenorhabditis elegans), Q9XVI2 (parent)
chain: B1 partner
partner: B1 chain

Variants of: B1
Conditions: with ctnh1_caeel sys-1, Q9XVI2

effect of a mutation on the interaction	Variant
disrupting interaction strength	D9E

Variants of: B2
Conditions: with pop1_caeel pop-1, Q10666

effect of a mutation on the interaction	Variant
disrupting interaction strength	A533L
disrupting interaction strength	K539A
